According to publication PMC2757159 (Biochemistry, 2009):

Target: the molecule itself
Assay: SEC

B1: human H46R/H48Q copper-zinc superoxide dismutase (SOD1) double mutant (enzyme)
chain: not shown
With B1 the “stoichiometry N” value was 2.
